The record followed here is US20240182928, “NOVEL CRISPR ENZYMES AND SYSTEMS” (The Broad Institute, Inc., published 2024).

The data set has as its target T1, LshC2c2 (Cas13a) wild type (Leptotrichia shahii, UniProt P0DOC6 SEQ:1-1389).
T1 sequence: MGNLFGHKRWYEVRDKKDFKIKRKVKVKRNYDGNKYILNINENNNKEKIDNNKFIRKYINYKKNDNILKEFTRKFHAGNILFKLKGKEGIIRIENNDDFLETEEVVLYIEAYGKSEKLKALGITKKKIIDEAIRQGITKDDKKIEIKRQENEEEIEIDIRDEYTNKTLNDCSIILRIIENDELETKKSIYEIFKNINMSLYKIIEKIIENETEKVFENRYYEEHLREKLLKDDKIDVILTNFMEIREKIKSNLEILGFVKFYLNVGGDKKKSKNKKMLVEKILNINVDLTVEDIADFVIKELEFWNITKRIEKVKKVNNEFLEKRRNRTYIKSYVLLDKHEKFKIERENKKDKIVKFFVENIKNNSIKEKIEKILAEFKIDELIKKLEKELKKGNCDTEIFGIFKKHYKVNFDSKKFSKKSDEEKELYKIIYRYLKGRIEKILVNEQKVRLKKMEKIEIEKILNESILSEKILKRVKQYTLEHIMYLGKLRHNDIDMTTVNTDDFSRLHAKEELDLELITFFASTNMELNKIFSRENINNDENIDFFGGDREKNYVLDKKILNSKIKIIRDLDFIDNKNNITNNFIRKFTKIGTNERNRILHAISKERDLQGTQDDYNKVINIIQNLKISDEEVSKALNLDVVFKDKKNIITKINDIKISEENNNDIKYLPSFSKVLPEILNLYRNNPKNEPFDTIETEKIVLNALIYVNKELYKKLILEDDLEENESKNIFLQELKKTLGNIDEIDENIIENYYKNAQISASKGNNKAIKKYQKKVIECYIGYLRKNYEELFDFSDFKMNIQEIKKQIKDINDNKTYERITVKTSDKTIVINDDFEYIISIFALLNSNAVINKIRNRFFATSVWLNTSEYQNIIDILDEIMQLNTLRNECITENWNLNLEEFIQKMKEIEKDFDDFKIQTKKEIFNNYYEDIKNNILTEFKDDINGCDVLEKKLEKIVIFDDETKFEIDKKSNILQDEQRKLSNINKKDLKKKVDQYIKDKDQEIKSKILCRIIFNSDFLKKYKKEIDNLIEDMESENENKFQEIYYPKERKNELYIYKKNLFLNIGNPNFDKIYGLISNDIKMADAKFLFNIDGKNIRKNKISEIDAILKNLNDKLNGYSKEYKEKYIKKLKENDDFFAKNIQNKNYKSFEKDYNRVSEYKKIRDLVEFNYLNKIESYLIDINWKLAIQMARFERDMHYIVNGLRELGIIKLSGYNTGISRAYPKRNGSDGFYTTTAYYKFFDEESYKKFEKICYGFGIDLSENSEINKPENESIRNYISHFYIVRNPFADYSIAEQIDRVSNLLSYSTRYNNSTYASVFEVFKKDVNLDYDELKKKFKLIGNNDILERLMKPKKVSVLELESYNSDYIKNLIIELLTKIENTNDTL
In words: EMSA; non-target reverse complement. The settings on record: tags: expressed as 6-His-MBP-TEV fusion, TEV-cleaved; direct repeat stem-loop. An excerpt: FIG. 119D Electrophoretic mobility shift assay (EMSA) evaluating affinity of the wild type LshC2c2-crRNA complex against a targeted (left) and a non-targeted (right) ssRNA substrate. The non-targeted ssRNA substrate is the reverse-complement of the targeted ssRNA. EDTA is supplemented to reaction condition to reduce any cleavage activity. FIG. 119E Electrophoretic mobility shift assay with LshC2c2(R1278A)-crRNA complex against on-target ssRNA and non-targeting complementary ssRNA (same substrate sequences as in D). FIG. 119B discloses SEQ ID NOS: 2090-2091, respectively, in order of appearance.
To determine if target binding and cleavage activity of LshC2c2 are likewise separable, electrophoretic mobility shift assays (EMSA) were performed on both the wild-type (FIG. 119D) and R1278A mutant LshC2c2 (FIG. 119E) in complex with crRNA.
On the technique in general: Mobility shift assays separate free from complexed probe on a gel.

B1: crRNA 14 ; ssRNA 10 (rc) (ssRNA ; ssRNA)
RNA 1: CCACCCCAAUAUCGAAGGGGACUAAAACUAGAUUGCUGUUCUACCAAGUAAUCCAU
RNA 2: CUUUAUGCUUCCGGCGUAGAUUGCUGUUCUACCAAGUAAUCCAUAUUCGAGCUCGAAUUCACUGGCCUAU
Regarding B1, the binding result is on record as “no binding”.
